{"source": "the supplement of paper PMC10567573", "parents": {"B1": {"name": "SLC6A17 (parent)", "chain": "KAVEEELDAEDRPAWNSKLQYILA"}}, "data": [{"variants_of": "B1", "assay": "protein stability index of a GFP-peptide fusion (GPS, HEK-293T) (PSI 1-6); higher = more stable", "conditions": "c terminus: a fixed tail appended", "values": [{"variant": "KAVEEELNAEDRPAWNSKLQYILA", "protein stability index": 2.46}, {"variant": "KAVEEELPAEDRPAWNSKLQYILA", "protein stability index": 3.77}, {"variant": "KAVEEELQAEDRPAWNSKLQYILA", "protein stability index": 2.25}, {"variant": "KAVEEELRAEDRPAWNSKLQYILA", "protein stability index": 2.75}, {"variant": "KAVEEELSAEDRPAWNSKLQYILA", "protein stability index": 3.15}, {"variant": "KAVEEELTAEDRPAWNSKLQYILA", "protein stability index": 2.57}, {"variant": "KAVEEELVAEDRPAWNSKLQYILA", "protein stability index": 2.91}, {"variant": "KAVEEELWAEDRPAWNSKLQYILA", "protein stability index": 1.83}, {"variant": "KAVEEELYAEDRPAWNSKLQYILA", "protein stability index": 2.08}, {"variant": "KAVEEELDCEDRPAWNSKLQYILA", "protein stability index": 2.65}, {"variant": "KAVEEELDDEDRPAWNSKLQYILA", "protein stability index": 2.38}, {"variant": "KAVEEELDEEDRPAWNSKLQYILA", "protein stability index": 2.61}, {"variant": "KAVEEELDFEDRPAWNSKLQYILA", "protein stability index": 1.95}, {"variant": "KAVEEELDGEDRPAWNSKLQYILA", "protein stability index": 2.24}, {"variant": "KAVEEELDHEDRPAWNSKLQYILA", "protein stability index": 2.41}, {"variant": "KAVEEELDIEDRPAWNSKLQYILA", "protein stability index": 2.02}, {"variant": "KAVEEELDKEDRPAWNSKLQYILA", "protein stability index": 3.15}, {"variant": "KAVEEELDLEDRPAWNSKLQYILA", "protein stability index": 2.33}, {"variant": "KAVEEELDMEDRPAWNSKLQYILA", "protein stability index": 1.73}, {"variant": "KAVEEELDNEDRPAWNSKLQYILA", "protein stability index": 2.83}, {"variant": "KAVEEELDPEDRPAWNSKLQYILA", "protein stability index": 2.54}, {"variant": "KAVEEELDQEDRPAWNSKLQYILA", "protein stability index": 2.44}, {"variant": "KAVEEELDREDRPAWNSKLQYILA", "protein stability index": 2.69}, {"variant": "KAVEEELDTEDRPAWNSKLQYILA", "protein stability index": 2.82}, {"variant": "KAVEEELDVEDRPAWNSKLQYILA", "protein stability index": 3.1}, {"variant": "KAVEEELDWEDRPAWNSKLQYILA", "protein stability index": 2.06}, {"variant": "KAVEEELDYEDRPAWNSKLQYILA", "protein stability index": 2.48}, {"variant": "KAVEEELDAADRPAWNSKLQYILA", "protein stability index": 2.27}, {"variant": "KAVEEELDACDRPAWNSKLQYILA", "protein stability index": 2.23}, {"variant": "KAVEEELDADDRPAWNSKLQYILA", "protein stability index": 2.52}, {"variant": "KAVEEELDAFDRPAWNSKLQYILA", "protein stability index": 2.63}, {"variant": "KAVEEELDAGDRPAWNSKLQYILA", "protein stability index": 3.72}, {"variant": "KAVEEELDAHDRPAWNSKLQYILA", "protein stability index": 1.84}, {"variant": "KAVEEELDAIDRPAWNSKLQYILA", "protein stability index": 1.86}, {"variant": "KAVEEELDAKDRPAWNSKLQYILA", "protein stability index": 2.5}, {"variant": "KAVEEELDALDRPAWNSKLQYILA", "protein stability index": 2.15}, {"variant": "KAVEEELDAMDRPAWNSKLQYILA", "protein stability index": 1.47}, {"variant": "KAVEEELDANDRPAWNSKLQYILA", "protein stability index": 2.57}, {"variant": "KAVEEELDAPDRPAWNSKLQYILA", "protein stability index": 2.28}, {"variant": "KAVEEELDAQDRPAWNSKLQYILA", "protein stability index": 1.67}, {"variant": "KAVEEELDARDRPAWNSKLQYILA", "protein stability index": 2.83}, {"variant": "KAVEEELDATDRPAWNSKLQYILA", "protein stability index": 2.44}, {"variant": "KAVEEELDAVDRPAWNSKLQYILA", "protein stability index": 1.9}, {"variant": "KAVEEELDAWDRPAWNSKLQYILA", "protein stability index": 1.76}, {"variant": "KAVEEELDAYDRPAWNSKLQYILA", "protein stability index": 1.93}, {"variant": "KAVEEELDAEARPAWNSKLQYILA", "protein stability index": 3.08}, {"variant": "KAVEEELDAECRPAWNSKLQYILA", "protein stability index": 1.99}, {"variant": "KAVEEELDAEFRPAWNSKLQYILA", "protein stability index": 2.07}, {"variant": "KAVEEELDAEGRPAWNSKLQYILA", "protein stability index": 3.55}, {"variant": "KAVEEELDAEHRPAWNSKLQYILA", "protein stability index": 2.59}, {"variant": "KAVEEELDAEIRPAWNSKLQYILA", "protein stability index": 2.54}, {"variant": "KAVEEELDAEKRPAWNSKLQYILA", "protein stability index": 2.67}, {"variant": "KAVEEELDAELRPAWNSKLQYILA", "protein stability index": 1.79}, {"variant": "KAVEEELDAEMRPAWNSKLQYILA", "protein stability index": 1.69}, {"variant": "KAVEEELDAENRPAWNSKLQYILA", "protein stability index": 2.28}, {"variant": "KAVEEELDAEPRPAWNSKLQYILA", "protein stability index": 2.02}, {"variant": "KAVEEELDAEQRPAWNSKLQYILA", "protein stability index": 2.12}, {"variant": "KAVEEELDAERRPAWNSKLQYILA", "protein stability index": 2.54}, {"variant": "KAVEEELDAESRPAWNSKLQYILA", "protein stability index": 1.98}, {"variant": "KAVEEELDAETRPAWNSKLQYILA", "protein stability index": 2.65}, {"variant": "KAVEEELDAEVRPAWNSKLQYILA", "protein stability index": 2}, {"variant": "KAVEEELDAEWRPAWNSKLQYILA", "protein stability index": 2.16}, {"variant": "KAVEEELDAEYRPAWNSKLQYILA", "protein stability index": 1.42}, {"variant": "KAVEEELDAEDAPAWNSKLQYILA", "protein stability index": 3.54}, {"variant": "KAVEEELDAEDCPAWNSKLQYILA", "protein stability index": 2.8}, {"variant": "KAVEEELDAEDDPAWNSKLQYILA", "protein stability index": 3.74}, {"variant": "KAVEEELDAEDEPAWNSKLQYILA", "protein stability index": 3.95}, {"variant": "KAVEEELDAEDFPAWNSKLQYILA", "protein stability index": 1.76}, {"variant": "KAVEEELDAEDGPAWNSKLQYILA", "protein stability index": 2.32}, {"variant": "KAVEEELDAEDHPAWNSKLQYILA", "protein stability index": 2.41}, {"variant": "KAVEEELDAEDIPAWNSKLQYILA", "protein stability index": 2.47}, {"variant": "KAVEEELDAEDKPAWNSKLQYILA", "protein stability index": 2.83}, {"variant": "KAVEEELDAEDLPAWNSKLQYILA", "protein stability index": 2.45}, {"variant": "KAVEEELDAEDMPAWNSKLQYILA", "protein stability index": 2.19}, {"variant": "KAVEEELDAEDNPAWNSKLQYILA", "protein stability index": 2.97}, {"variant": "KAVEEELDAEDPPAWNSKLQYILA", "protein stability index": 2.44}, {"variant": "KAVEEELDAEDQPAWNSKLQYILA", "protein stability index": 3.15}, {"variant": "KAVEEELDAEDSPAWNSKLQYILA", "protein stability index": 3.4}, {"variant": "KAVEEELDAEDTPAWNSKLQYILA", "protein stability index": 3.82}, {"variant": "KAVEEELDAEDVPAWNSKLQYILA", "protein stability index": 2.54}, {"variant": "KAVEEELDAEDWPAWNSKLQYILA", "protein stability index": 2.19}, {"variant": "KAVEEELDAEDYPAWNSKLQYILA", "protein stability index": 2.2}, {"variant": "KAVEEELDAEDRAAWNSKLQYILA", "protein stability index": 1.54}, {"variant": "KAVEEELDAEDRCAWNSKLQYILA", "protein stability index": 2.28}, {"variant": "KAVEEELDAEDRDAWNSKLQYILA", "protein stability index": 2.72}, {"variant": "KAVEEELDAEDREAWNSKLQYILA", "protein stability index": 2.41}, {"variant": "KAVEEELDAEDRFAWNSKLQYILA", "protein stability index": 2.63}, {"variant": "KAVEEELDAEDRGAWNSKLQYILA", "protein stability index": 2.71}, {"variant": "KAVEEELDAEDRHAWNSKLQYILA", "protein stability index": 2.21}, {"variant": "KAVEEELDAEDRIAWNSKLQYILA", "protein stability index": 1.42}, {"variant": "KAVEEELDAEDRKAWNSKLQYILA", "protein stability index": 2.57}, {"variant": "KAVEEELDAEDRLAWNSKLQYILA", "protein stability index": 1.85}, {"variant": "KAVEEELDAEDRMAWNSKLQYILA", "protein stability index": 2.79}, {"variant": "KAVEEELDAEDRNAWNSKLQYILA", "protein stability index": 2.31}]}]}
